Results taken from article PMC4869175, “Evidence that phytochrome functions as a protein kinase in plant light signalling” (Nature Communications, 2016).

T1: Avena sativa phytochrome A, full-length wild type (Avena sativa, UniProt P06593 1-1129, phycocyanobilin chromophore assembled (chromophore-binding site C322))
T1 construct: Avena sativa (oat) phytochrome A, full-length gene AsPHYA; 1129 residues by the printed construct limits (66-1129aa); Used as Pr (far-red irradiated) and Pfr (red irradiated) forms; also called AsphyA; FL-AsphyA; source: phycocyanobilin added in vitro
T1 sequence (looked up): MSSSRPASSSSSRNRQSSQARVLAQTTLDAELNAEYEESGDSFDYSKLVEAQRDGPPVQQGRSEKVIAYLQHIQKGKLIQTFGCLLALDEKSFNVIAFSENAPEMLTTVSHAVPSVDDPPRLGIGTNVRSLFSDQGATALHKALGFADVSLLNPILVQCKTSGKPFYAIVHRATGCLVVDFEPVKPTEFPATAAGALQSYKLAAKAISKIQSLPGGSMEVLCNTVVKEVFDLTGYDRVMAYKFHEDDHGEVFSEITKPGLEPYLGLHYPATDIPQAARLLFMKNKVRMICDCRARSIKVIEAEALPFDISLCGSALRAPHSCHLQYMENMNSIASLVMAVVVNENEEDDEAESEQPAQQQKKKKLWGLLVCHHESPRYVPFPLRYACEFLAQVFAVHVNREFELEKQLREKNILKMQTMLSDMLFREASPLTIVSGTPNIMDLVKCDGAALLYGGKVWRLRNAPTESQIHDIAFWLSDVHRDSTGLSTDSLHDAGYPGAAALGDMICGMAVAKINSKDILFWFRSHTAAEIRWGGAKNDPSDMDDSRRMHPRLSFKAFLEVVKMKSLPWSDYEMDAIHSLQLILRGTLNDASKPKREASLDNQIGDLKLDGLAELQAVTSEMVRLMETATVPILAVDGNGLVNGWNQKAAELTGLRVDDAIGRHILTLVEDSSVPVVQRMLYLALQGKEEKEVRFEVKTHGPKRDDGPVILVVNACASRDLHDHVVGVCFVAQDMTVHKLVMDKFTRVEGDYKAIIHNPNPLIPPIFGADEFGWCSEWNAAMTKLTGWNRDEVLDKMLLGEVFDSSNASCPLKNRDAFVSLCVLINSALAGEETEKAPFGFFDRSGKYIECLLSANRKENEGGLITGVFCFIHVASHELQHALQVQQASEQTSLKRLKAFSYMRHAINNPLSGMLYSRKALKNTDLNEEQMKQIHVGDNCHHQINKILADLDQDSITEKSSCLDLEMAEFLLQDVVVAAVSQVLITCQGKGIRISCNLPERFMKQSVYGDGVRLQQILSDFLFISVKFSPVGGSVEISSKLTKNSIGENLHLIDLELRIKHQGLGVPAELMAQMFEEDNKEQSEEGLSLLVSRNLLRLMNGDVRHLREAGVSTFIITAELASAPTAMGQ

T2: AsphyA D422R, full length (Avena sativa, UniProt P06593 1-1129, D422R, phycocyanobilin chromophore assembled)
T2 construct: Avena sativa phytochrome A, full length, with D422R; source: phycocyanobilin added in vitro
T2 sequence (looked up): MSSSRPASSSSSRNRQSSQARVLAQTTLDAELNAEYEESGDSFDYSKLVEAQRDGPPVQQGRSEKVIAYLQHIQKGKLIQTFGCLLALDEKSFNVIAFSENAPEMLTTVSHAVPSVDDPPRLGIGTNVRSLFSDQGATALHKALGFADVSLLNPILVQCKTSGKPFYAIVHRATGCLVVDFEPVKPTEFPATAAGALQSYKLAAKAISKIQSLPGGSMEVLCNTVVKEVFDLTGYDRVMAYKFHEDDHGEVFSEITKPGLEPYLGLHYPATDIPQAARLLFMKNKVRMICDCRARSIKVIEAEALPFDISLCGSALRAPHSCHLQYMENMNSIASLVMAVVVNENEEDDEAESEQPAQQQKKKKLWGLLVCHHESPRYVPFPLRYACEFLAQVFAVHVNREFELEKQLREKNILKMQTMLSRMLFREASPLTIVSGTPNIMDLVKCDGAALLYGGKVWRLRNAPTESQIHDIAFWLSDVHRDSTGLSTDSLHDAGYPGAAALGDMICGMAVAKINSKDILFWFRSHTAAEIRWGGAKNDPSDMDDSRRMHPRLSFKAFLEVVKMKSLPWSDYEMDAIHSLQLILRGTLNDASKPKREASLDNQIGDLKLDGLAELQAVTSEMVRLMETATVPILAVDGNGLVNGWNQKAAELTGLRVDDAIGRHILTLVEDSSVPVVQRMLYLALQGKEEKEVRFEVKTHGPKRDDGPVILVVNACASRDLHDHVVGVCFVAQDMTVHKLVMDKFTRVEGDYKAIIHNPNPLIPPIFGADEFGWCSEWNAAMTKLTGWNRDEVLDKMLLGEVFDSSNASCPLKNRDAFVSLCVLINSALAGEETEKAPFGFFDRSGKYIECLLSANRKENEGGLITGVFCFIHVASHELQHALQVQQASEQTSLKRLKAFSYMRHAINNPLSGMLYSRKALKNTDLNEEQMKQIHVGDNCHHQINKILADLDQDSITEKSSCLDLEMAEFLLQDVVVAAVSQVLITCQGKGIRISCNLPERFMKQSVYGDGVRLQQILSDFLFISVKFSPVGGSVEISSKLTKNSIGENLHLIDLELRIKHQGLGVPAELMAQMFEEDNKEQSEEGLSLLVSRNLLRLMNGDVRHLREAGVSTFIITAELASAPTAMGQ


How the values were obtained:
[1] = target: T1, Avena sativa phytochrome A, full-length …; experiment: pull-down; GST/strep-fused interacting protein (1.0 μg) held on glutathione resin, phytochrome (1.0 μg) in solution, Pr and Pfr forms both tested; 60 min at 4 °C in pull-down buffer (100 mM Tris-HCl pH 7.8, 1 mM EDTA, 150 mM NaCl, 100 μg/ml BSA); western blot with oat22 and anti-GST; details: both partners purified
[2] = target: T2, AsphyA D422R, full length; experiment: as above; details: both partners purified

Row | binding result [1] | binding result [2] | Binder
1 | binds | binds | GST/strep-fused FHL (natural protein, UniProt A8MR65 1-201, looked up, FHL, which with FHY1 takes part in the nuclear localization of phyA; not shown: GST, N-terminal, kept) MDDADKSCSPSLDHSDINDPMIVAVESLDTSKKRKLHAEESDLLPLPKHFCSEHQASLVNSSCPSSVIDYAECSYAMENTKTSDEASSSASFTGPSLYMFKDSIYSTGSSSSGYAATSSIEQCFSKVDHKTQEDTQDFTHMEFIYHDSEFAVEDLQEVLNPVESYILSSARWSVSNQDSKEATTKPTIDQEFEQYFSTLMM
2 | binds | binds | GST/strep-fused FHY1 (far-red elongated hypocotyl 1) (natural protein, UniProt Q8S4Q6 1-202, looked up, FHY1 (far-red elongated hypocotyl 1); not shown: GST, N-terminal, kept) MPEVEVDNNNEKPSEINSFHHMIISSSKNVLKMEEVEVSKKRKFQTDQSDELSLLPLSKHTCFANVACSENTNGNSEIDTEYSMSSYVNSTTSMECNNDIEMKEESSGSCGEDKMISFESHLDYIYGTQNLEDFSEKVIENILYLDEQEEEEEDAKGCSSNAAKFVLSSGRWTVNQDDSTLHETKKPTIDQEFEQYFSTLML
3 | binds | binds | GST/strep-fused PIF3 (natural protein, UniProt O80536 1-524, looked up, Probably Arabidopsis PIF3, as PIF1 and PIF4 are called Arabidopsis; not shown: GST, N-terminal, kept) MPLFELFRLTKAKLESAQDRNPSPPVDEVVELVWENGQISTQSQSSRSRNIPPPQANSSRAREIGNGSKTTMVDEIPMSVPSLMTGLSQDDDFVPWLNHHPSLDGYCSDFLRDVSSPVTVNEQESDMAVNQTAFPLFQRRKDGNESAPAASSSQYNGFQSHSLYGSDRARDLPSQQTNPDRFTQTQEPLITSNKPSLVNFSHFLRPATFAKTTNNNLHDTKEKSPQSPPNVFQTRVLGAKDSEDKVLNESVASATPKDNQKACLISEDSCRKDQESEKAVVCSSVGSGNSLDGPSESPSLSLKRKHSNIQDIDCHSEDVEEESGDGRKEAGPSRTGLGSKRSRSAEVHNLSERRRRDRINEKMRALQELIPNCNKVDKASMLDEAIEYLKSLQLQVQIMSMASGYYLPPAVMFPPGMGHYPAAAAAMAMGMGMPYAMGLPDLSRGGSSVNHGPQFQVSGMQQQPVAMGIPRVSGGGIFAGSSTIGNGSTRDLSGSKDQTTTNNNSNLKPIKRKQGSSDQFCGSS
